Columns and labels:
[1] = target: T1, cIL2Rg-Fc (lot#P210115SV5) (cynomolgus, UniProt A0A2K5VGJ6 23-262); test: SPR (Biacore T200); ratio experimental/calculated Rmax
T1 construct: Named only by lot number; also called cynomolgus IL2Rg-Fc; not shown: Fc of the fusion protein
T1 sequence: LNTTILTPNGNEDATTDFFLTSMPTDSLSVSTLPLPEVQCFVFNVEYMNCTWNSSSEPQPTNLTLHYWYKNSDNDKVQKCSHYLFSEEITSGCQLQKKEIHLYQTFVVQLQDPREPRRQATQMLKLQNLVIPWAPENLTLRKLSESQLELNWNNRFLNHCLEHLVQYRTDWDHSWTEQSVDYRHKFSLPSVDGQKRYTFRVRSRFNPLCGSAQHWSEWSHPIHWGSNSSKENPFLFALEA

[2] = target: T2, hIL2Rg-Fc (SinoBiological cat#10555) (human, UniProt P31785 23-254, limits assumed); test: as above
T2 construct: Bought Fc fusion (SinoBiological cat#10555); P31785 is printed for hCD132 in the background; also called human IL2Rg-Fc; not shown: Fc of the bought fusion protein
T2 sequence (looked up): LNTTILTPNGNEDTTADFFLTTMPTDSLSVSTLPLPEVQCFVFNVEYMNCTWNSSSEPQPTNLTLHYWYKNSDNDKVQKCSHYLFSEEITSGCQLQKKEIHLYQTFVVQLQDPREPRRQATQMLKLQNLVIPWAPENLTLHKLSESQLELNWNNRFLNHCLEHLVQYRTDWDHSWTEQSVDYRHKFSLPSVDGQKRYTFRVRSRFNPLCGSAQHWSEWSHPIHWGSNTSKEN

[3] = target: T1, cIL2Rg-Fc (lot#P210115SV5); test: SPR (Biacore T200), Fc-fused ligand captured on chip, dual VHH as analyte, 1:1 Langmuir fit
Experimental: (§1) All experiments were conducted in 10 mM Hepes, 150 mM NaCl, 0.05% (v/v) Polysorbate 20 (PS20) and 3 mM EDTA (HBS-EP+ buffer) on a Biacore T200 instrument equipped with Protein A or CAP biotin chips (Cytiva). For experiments on Protein A chips, Fc-fused ligands were flowed at 5 μl/min for variable time ranging from 18 to 300 seconds, reaching the capture loads listed in the tables below. Following ligand capture, injections of a 2-fold dilution series of analyte typically comprising at least five concentrations between 1 μM and 1 nM were performed in either high performance or single cycle kinetics mode. Surface regeneration was achieved by flowing 10 mM glycine-HCl, pH 1.5 (60 seconds, […]). Buffer-subtracted sensograms were processed with Biacore T200 Evaluation Software and globally fit with a 1:1 Langmuir binding model (bulk shift set to zero) to extract kinetics and affinity constants (kₐ, kd, KD). RMAX<100 RU indicates surface density compatible with kinetics analysis. Experiments on CAP chips were performed as described above with an additional capture step of Biotin CAPture reagent (10 seconds, 40 uL/min) performed prior to capture of biotinylated ligands. Calculated Rmax were generated using the equation Rmax=Load (RU) x valency of ligand x (Molecular weight of analyte/Molecular weight of ligand. Surface activity was defined as the ratio experimental/calculated Rmax. The results of these experiments are provided in below for sample information and experimental results.

[4] = target: T2, hIL2Rg-Fc (SinoBiological cat#10555); test: as above
Experimental: as §1

Binder | Surface Activity [1] | Surface Activity [2] | Kd [3] | koff [3] | kon [3] | Kd [4] | koff [4] | kon [4]
DR441(DR236-DR231) (bispecific antibody, Anti-hIL10Ra/hIL2Rg dual VHH with ASH6 handle; also called F1) QVQLQESGGGSVQAGGSLRLSCAASRFTYSSYCMGWFRQAPGKEREGVASIDSDGSTSYTDSVKGRFTISKDNAKNTLYLQMNSLKPEDTAMYYCALDLMSTVVPGFCGFLLSAGMDYWGKGTQVTVSSGGGSQVQLQESGGGSVQAGGSLRLSCTASGFTFDDREMNWYRQAPGNECELVSTISSDGSTYYADSVKGRFTISQDNAKNTVYLQMDSVKPEDTAVYYCAADFMIAIQAPGAGCWGQGTQVTVSSASHHHHHH | 1% | 4% | 8.3 nM | 0.0028 s⁻¹ | 340000 M⁻¹ s⁻¹ | 11.1 nM | 0.0053 s⁻¹ | 470000 M⁻¹ s⁻¹
DR392(DR229-DR236) (bispecific antibody, Anti-hIL10Ra/hIL2Rg dual VHH with ASH6 handle; also called A7) QVQLQESGGGLVQPGGSLRLSCTASGFSFSSYPMTWARQAPGKGLEWVSTIASDGGSTAYAASVEGRFTISRDNAKSTLYLQLNSLKTEDTAMYYCTKGYGDGTPAPGQGTQVTVSSGGGSQVQLQESGGGSVQAGGSLRLSCAASRFTYSSYCMGWFRQAPGKEREGVASIDSDGSTSYTDSVKGRFTISKDNAKNTLYLQMNSLKPEDTAMYYCALDLMSTVVPGFCGFLLSAGMDYWGKGTQVTVSSASHHHHHH | 1% | 4% | 2.4 nM | 0.004 s⁻¹ | 1.6e+06 M⁻¹ s⁻¹ | 3.6 nM | 0.0062 s⁻¹ | 1.7e+06 M⁻¹ s⁻¹
DR395(DR229-DR239) (bispecific antibody, Anti-hIL10Ra/hIL2Rg dual VHH with ASH6 handle; also called A2) QVQLQESGGGLVQPGGSLRLSCTASGFSFSSYPMTWARQAPGKGLEWVSTIASDGGSTAYAASVEGRFTISRDNAKSTLYLQLNSLKTEDTAMYYCTKGYGDGTPAPGQGTQVTVSSGGGSQVQLQESGGGSVQAGGSLRLSCTVSGYTYSSNCMGWFRQAPGKEREGVATIYTGGGNTYYADSVKGRFTISQDNAKNTVYLQMNNLKPEDTAMYYCAAEPLSRVYGGSCPTPTFDYWGQGTQVTVSSASHHHHHH | 2% | 5% | 3.2 nM | 0.0026 s⁻¹ | 800000 M⁻¹ s⁻¹ | 3.9 nM | 0.0078 s⁻¹ | 2e+06 M⁻¹ s⁻¹
DR449(DR237-DR233) (bispecific antibody, Anti-hIL10Ra/hIL2Rg dual VHH with ASH6 handle; also called F3) QVQLQESGGGSVQAGGSLRLSCAASGYTYSMYCMGWFRQAPGKEREGVAQINSDGSTSYADSVKGRFTISKDNAKNTLYLQMNSLKPEDTAMYYCAADSRVYGGSWYERLCGPYTYEYNYWGQGTQVTVSSGGGSQVQLQESGGGSVQAGGSLRLSCTASGFTFDDSDMGWYRQAPGNECELVSTISSDGSTYYADSVKGRFTISQDNAKNTVYLQMNSLKPEDTAVYYCAAEPRGYYSNYGGRRECNYWGQGTQVTVSSASHHHHHH | 1% | 2% | 22.6 nM | 0.0048 s⁻¹ | 210000 M⁻¹ s⁻¹ | 30.4 nM | 0.0065 s⁻¹ | 220000 M⁻¹ s⁻¹
DR468(DR240-DR234) (bispecific antibody, Anti-hIL10Ra/hIL2Rg dual VHH with ASH6 handle; also called G8) QVQLQESGGGSVQAGGSLRLSCGASGYTYSSYCMGWFRQVPGKEREGVAVIDSDGSTSYADSVKGRFTISKDNGKNTLYLQMNSLKPEDTAMYYCAADLGHYRPPCGVLYLGMDYWGKGTQVTVSSGGGSQVQLQESGGGSVQAGGSLRLSCVASGYTFSSYCMGWFRQAPGKEREGVAALGGGSTYYADSVKGRFTISQDNAKNTLYLQMNSLKPEDTAMYYCAAAWVACLEFGGSWYDLARYKHWGQGTQVTVSSASHHHHHH | 1% | 6% | 4.3 nM | 0.001 s⁻¹ | 240000 M⁻¹ s⁻¹ | 8.5 nM | 0.0015 s⁻¹ | 170000 M⁻¹ s⁻¹
DR438(DR235-DR234) (bispecific antibody, Anti-hIL10Ra/hIL2Rg dual VHH with ASH6 handle; also called D12) QVQLQESGGGSVQAGGSLRLSCAASRYLYSIDYMAWFRQSPGKEREPVAVIYTASGATFYPDSVKGRFTISQDNAKMTVYLQMNSLKSEDTAMYYCAAVRKTDSYLFDAQSFTYWGQGTQVTVSSGGGSQVQLQESGGGSVQAGGSLRLSCVASGYTFSSYCMGWFRQAPGKEREGVAALGGGSTYYADSVKGRFTISQDNAKNTLYLQMNSLKPEDTAMYYCAAAWVACLEFGGSWYDLARYKHWGQGTQVTVSSASHHHHHH | 1% | 5% | 2.2 nM | 0.0012 s⁻¹ | 560000 M⁻¹ s⁻¹ | 2.7 nM | 0.001 s⁻¹ | 390000 M⁻¹ s⁻¹
DR466(DR240-DR232) (bispecific antibody, Anti-hIL10Ra/hIL2Rg dual VHH with ASH6 handle; also called H7) QVQLQESGGGSVQAGGSLRLSCGASGYTYSSYCMGWFRQVPGKEREGVAVIDSDGSTSYADSVKGRFTISKDNGKNTLYLQMNSLKPEDTAMYYCAADLGHYRPPCGVLYLGMDYWGKGTQVTVSSGGGSQVQLQESGGGSVQAGGSLRLSCVASGYTSCMGWFRQAPGKEREAVATIYTRGRSIYYADSVKGRFTISQDNAKNTLYLQMNSLKPEDIAMYSCAAGGYSWSAGCEFNYWGQGTQVTVSSASHHHHHH | 9% | 6% | 49.9 nM | 0.0037 s⁻¹ | 75000 M⁻¹ s⁻¹ | 20.8 nM | 0.026 s⁻¹ | 1.2e+06 M⁻¹ s⁻¹
DR444(DR236-DR234) (bispecific antibody, Anti-hIL10Ra/hIL2Rg dual VHH with ASH6 handle; also called E8) QVQLQESGGGSVQAGGSLRLSCAASRFTYSSYCMGWFRQAPGKEREGVASIDSDGSTSYTDSVKGRFTISKDNAKNTLYLQMNSLKPEDTAMYYCALDLMSTVVPGFCGFLLSAGMDYWGKGTQVTVSSGGGSQVQLQESGGGSVQAGGSLRLSCVASGYTFSSYCMGWFRQAPGKEREGVAALGGGSTYYADSVKGRFTISQDNAKNTLYLQMNSLKPEDTAMYYCAAAWVACLEFGGSWYDLARYKHWGQGTQVTVSSASHHHHHH | 2% | 5% | 5.3 nM | 0.00077 s⁻¹ | 150000 M⁻¹ s⁻¹ | 6.9 nM | 0.0026 s⁻¹ | 380000 M⁻¹ s⁻¹
DR437(DR235-DR233) (bispecific antibody, Anti-hIL10Ra/hIL2Rg dual VHH with ASH6 handle; also called D6) QVQLQESGGGSVQAGGSLRLSCAASRYLYSIDYMAWFRQSPGKEREPVAVIYTASGATFYPDSVKGRFTISQDNAKMTVYLQMNSLKSEDTAMYYCAAVRKTDSYLFDAQSFTYWGQGTQVTVSSGGGSQVQLQESGGGSVQAGGSLRLSCTASGFTFDDSDMGWYRQAPGNECELVSTISSDGSTYYADSVKGRFTISQDNAKNTVYLQMNSLKPEDTAVYYCAAEPRGYYSNYGGRRECNYWGQGTQVTVSSASHHHHHH | 1% | 3% | 7.8 nM | 0.0022 s⁻¹ | 290000 M⁻¹ s⁻¹ | 27.5 nM | 0.0051 s⁻¹ | 190000 M⁻¹ s⁻¹
DR465(DR240-DR231) (bispecific antibody, Anti-hIL10Ra/hIL2Rg dual VHH with ASH6 handle; also called H1) QVQLQESGGGSVQAGGSLRLSCGASGYTYSSYCMGWFRQVPGKEREGVAVIDSDGSTSYADSVKGRFTISKDNGKNTLYLQMNSLKPEDTAMYYCAADLGHYRPPCGVLYLGMDYWGKGTQVTVSSGGGSQVQLQESGGGSVQAGGSLRLSCTASGFTFDDREMNWYRQAPGNECELVSTISSDGSTYYADSVKGRFTISQDNAKNTVYLQMDSVKPEDTAVYYCAADFMIAIQAPGAGCWGQGTQVTVSSASHHHHHH | 1% | 4% | 3.2 nM | 0.0022 s⁻¹ | 700000 M⁻¹ s⁻¹ | 14.5 nM | 0.0037 s⁻¹ | 250000 M⁻¹ s⁻¹
DR474(DR241-DR234) (bispecific antibody, Anti-hIL10Ra/hIL2Rg dual VHH with ASH6 handle; also called H9) QVQLQESGGGSVQAGGSLRLSCAASGYSNCSYDMTWYRQAPGKEREFVSAIHSDGSTRYADSVKGRFFISQDNAKNTVYLQMNSLKPEDTAMYYCKTDPLHCRAHGGSWYSVRANYWGQGTQVTVSSGGGSQVQLQESGGGSVQAGGSLRLSCVASGYTFSSYCMGWFRQAPGKEREGVAALGGGSTYYADSVKGRFTISQDNAKNTLYLQMNSLKPEDTAMYYCAAAWVACLEFGGSWYDLARYKHWGQGTQVTVSSASHHHHHH | 2% | 6% | 2.9 nM | 0.00093 s⁻¹ | 330000 M⁻¹ s⁻¹ | 3.2 nM | 0.00099 s⁻¹ | 310000 M⁻¹ s⁻¹
